The target in data set [1] is Schistosoma mansoni 5'-deoxy-5'-methylthioadenosine phosphorylase, wild type (Schistosoma mansoni). The experiment in a line: crystal structure; hanging drop at 18°C, 100 mM Bis-tris or MES pH 6.1-6.7, 14-18% PEG 3350, protein 6 mg/mL; apo or with adenine, MTA, tubercidin, sulphate; one or two trimers in the asymmetric unit.
Data set [2] deals with SmMTAP S12T mutant (Schistosoma mansoni). Description: crystal structure.
The target in another data set is T1, SmMTAP (Schistosoma mansoni, UniProt I0B503).
T1 construct: trimer; adult worm cDNA, corrected 3' end versus gene model Smp_028190
T1 sequence (I0B503 1-299): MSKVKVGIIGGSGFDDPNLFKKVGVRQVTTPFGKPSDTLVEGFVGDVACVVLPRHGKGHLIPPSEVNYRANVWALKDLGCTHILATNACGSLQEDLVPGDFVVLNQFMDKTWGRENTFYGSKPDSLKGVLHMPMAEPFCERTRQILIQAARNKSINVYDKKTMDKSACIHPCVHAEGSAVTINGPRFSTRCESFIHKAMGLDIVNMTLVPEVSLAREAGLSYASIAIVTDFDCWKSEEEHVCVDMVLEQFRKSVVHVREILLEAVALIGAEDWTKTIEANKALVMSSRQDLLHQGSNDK
Description: X-ray crystal structure. In kind it is binding.

The target in data set [3] is SmMTAP S12T/N87T double mutant (Schistosoma mansoni). The experiment in a line: crystal structure.
The target of data set [4] is SmMTAP N87T mutant (Schistosoma mansoni). Description: crystal structure.
The target in data set [5] is SmMTAP Q289L mutant (Schistosoma mansoni). The experiment in a line: crystal structure.
Substrate in data set [6]: Nc1ncnc2c1ncn2[C@H]1C[C@H](O)[C@@H](CO)O1
Description: xanthine oxidase coupled assay, A305. In kind it is biochemical, Schistosoma mansoni. To be noted: 100 mM potassium phosphate pH 7.4, room temperature. An excerpt: (§1) xanthine oxidase coupled assay, A305 on SmMTAP

Substrate in data set [7]: Nc1ncnc2c1ncn2[C@@H]1O[C@H](CO)[C@@H](O)[C@H]1O
The experiment in a line: xanthine oxidase coupled assay, A305. The class given is biochemical, Schistosoma mansoni. The following applies: 100 mM potassium phosphate pH 7.4, room temperature.
Text: as §1

Substrate in data set [8]: CSC[C@H]1O[C@@H](n2cnc3c(N)ncnc32)[C@H](O)[C@@H]1O
The experiment in a line: xanthine oxidase coupled assay, A305. The class given is biochemical, Schistosoma mansoni. To be noted: 100 mM potassium phosphate pH 7.4, room temperature.
Text: as §1

Substrate in the data set “purified protein”: O=P(O)(O)O
The experiment in a line: purified protein. The following applies: 100 mM Hepes pH 7.4, room temperature, nucleoside co-substrate not stated.

For the molecule “Schistosoma mansoni 5'-deoxy-5'-methylthioadenosine phosphorylase, wild type (enzyme)”, the stoichiometry N (usually a count of units in the complex or per binding partner) in data set [1] was 3.
Turning to SmMTAP S12T mutant (enzyme), the stoichiometry N in data set [2] was found to be 3.
Turning to `Nc1ncnc2c1ccn2[C@@H]1O[C@H](CO)[C@@H](O)[C@H]1O` [tubercidin], the X-ray crystal structure result on SmMTAP (active site, crystals grown with 5 mM ligand) is listed as “In the MTAP tubercidin complex, all of the active sites are occupied”.
In data set [3], SmMTAP S12T/N87T double mutant (enzyme) had a stoichiometry N of 3.
In data set [4], SmMTAP N87T mutant (enzyme) displayed a stoichiometry N of 3.
With `Nc1ncnc2[nH]cnc12` [adenine], the X-ray crystal structure result on SmMTAP (base binding site, grown at pH 6.1-6.7, PEG 3350) is recorded as “the only WT structure whose BBS are all occupied is the orthorhombic SmMTAP adenine complex”.
Turning to SmMTAP Q289L mutant (enzyme), the stoichiometry N in data set [5] is 3.

B1: SmMTAP (Schistosoma mansoni) (protein)
chain: MSKVKVGIIGGSGFDDPNLFKKVGVRQVTTPFGKPSDTLVEGFVGDVACVVLPRHGKGHLIPPSEVNYRANVWALKDLGCTHILATNACGSLQEDLVPGDFVVLNQFMDKTWGRENTFYGSKPDSLKGVLHMPMAEPFCERTRQILIQAARNKSINVYDKKTMDKSACIHPCVHAEGSAVTINGPRFSTRCESFIHKAMGLDIVNMTLVPEVSLAREAGLSYASIAIVTDFDCWKSEEEHVCVDMVLEQFRKSVVHVREILLEAVALIGAEDWTKTIEANKALVMSSRQDLLHQGSNDK
notes: trimer; adult worm cDNA, corrected 3' end versus gene model Smp_028190
As for B1, the Michaelis-Menten constant (Km) (in general, the substrate concentration at which the rate is half of its maximum) in [6] worked out at 3.97 ± 0.41 µM; in data set [7] it was 3.14 ± 0.16 µM; in [8], 3.63 ± 0.14 µM; in “purified protein” it was 65.58 ± 4.69 µM. Besides, the Vmax – broadly, the rate approached at saturating substrate – amounted to 0.0841 µM/min in data set [6], 0.0501 µM/min in [7], 0.0666 µM/min in [8] and 0.0358 µM/min in “purified protein”. In addition, the kcat (as a rule, the number of substrate molecules converted per active site and unit of time at saturation) in [6] came to 224 ± 11.3 s⁻¹; in data set [7] it was 334 ± 6.84 s⁻¹; in [8] it was 444 ± 5.72 s⁻¹; in “purified protein”, 478 s⁻¹. In addition, the specificity constant (kcat/Km) (usually the turnover number divided by the Michaelis constant) turned out to be 5.65e+07 ± 6.49e+06 M⁻¹ s⁻¹ in data set [6], 1.06e+08 ± 5.84e+06 M⁻¹ s⁻¹ in data set [7], 1.22e+08 ± 4.97e+06 M⁻¹ s⁻¹ in data set [8] and 7.28e+06 M⁻¹ s⁻¹ in the data set “purified protein”.

The record behind these values is paper PMC5147791 (PLoS Neglected Tropical Diseases, 2016).
